Test results taken from patent US20080134370A1, “Novel Altered Gene from Rice Anthranilic Acid Synthase Gene Oasa2 and Use Thereof” (priority 2005, published 2008).

Legend:
[1] = system: rice anthranilate synthase (OASA2 protein); test: Enzyme Activity Measurement 1: anthranilate synthase activity with 100 mM NH4Cl as amide group donating substrate; assay type: biochemical; conditions: without tryptophan, FIG. 1 and FIG. 2
Protocol: (§1) The OASA2 protein synthesized by the wheat embryo acellular system was quantified using rabbit anti-OASA2 antibody that had been prepared based on the peptide fragment with the sequence at position 161 to 175 (MDHEKGKVTEQVVDD) of the amino acid sequence of OASA2 protein. A refined sample of OASA2 protein was also used for the quantification. Western blot analysis was performed according to the method of Towbin et al. (Towbin, H., Staehelin, T. and Gordon, J. 1979. Electrophoretic transfer of proteins from polyacrylamide gels to nitrocellulose sheets: procedure and some applications. Proc Natl Acad Sci USA 76: 4350-4354). The estimated quantity of OASA2 protein was used for the correction of enzyme activity, as will be described later.
The OASA2 protein, which is the α subunit of rice anthranilate synthase catalyzes the reaction producing anthranilate from chorismate, using ammonia that originates in the amide group of glutamine supplied by the β subunit.
(§2) As is known, activity of OASA2 protein is under the feedback inhibition by tryptophan. It is therefore necessary to eliminate tryptophan in the protein synthesis reaction mixture, and replace the environment of the expressed protein with a buffer component for AS activity measurement. To this end, the protein synthesis reaction mixture was replaced with buffer A (50 mM Tris-HCl, pH7.6; 0.05 mM EDTA; 2 mM MgCl2; 0.05 mM DTT; 5% glycerol), using Microspin G-25 columns (Amersham Biosciences)<
(§3) Ninety μl of reaction solution (20 mM Tris-HCl, pH 8.3; 100 mM NH4Cl; 0.5 mM chorismate; 10 mM MgCl2) was supplemented with 2.5 μl of crude extract exchanged with buffer, and the reaction mixture was allowed to react for 1 hour at 32° C. The reaction was stopped by adding 10 μl of 1N HCl, and synthesized anthranilate was extracted with 300 μl of ethyl acetate. The yield of anthranilate was measured with Wallac 1420 ARVOsx-FL (Perkin-Elmer Life Sciences Japan. Co., Ltd.) at the excitation wavelength of 355 nm/fluorescence (emission) 460 nm. […]

[2] = system: Yeast TRP2 gene defective mutant strains; test: Free tryptophan content in yeast TRP2 gene defective mutant strains expressing OASA2 gene; assay type: cell-based
Text: Yeasts with a defective TRP2 gene, analogous to OASA2 gene, require tryptophan for growth. It can therefore be said that TRP2 activity is complemented by OASA2 gene if OASA2 gene introduced into the yeast allows for growth without tryptophan. Further, the activity of mutant OASA2 gene can be assayed by causing the yeast to express the mutant OASA2 gene having resistance to tryptophan feedback inhibition and by measuring accumulation of free tryptophan in the organism.
Expression vectors were constructed by performing PCR with the primers below. […] As described above, the N terminus region of the OASA2 protein includes a chloroplast transit signal, and as such the primers were designed to exclude the signal sequence in the product of expression, as in the Split-PCR primers described in Section (2) above. […]
The yeast transformant was separated into single colonies on synthetic complete agar medium (0.67% amino acid-less bactoyeast nitrogen base, uracil-free 0.2% dropout mixture, 2% bactoagar) supplemented with 2% glucose. […] The preparation was then applied to a high-performance liquid chromatography (HPLC) device (the product of Waters, Waters Alliance HPLC FLD System 2695) and free tryptophan content was measured. For HPLC, a Xterra RP18 column (4.6×150 mm) (Waters) was used, and detection of tryptophan was made at the excitation wavelength 278 nm/fluorescence wavelength 348 nm.

[3] = system: rice anthranilate synthase (OASA2 protein); test: Enzyme Activity Measurement 2: anthranilate synthase activity in reaction system using the β subunit of rice anthranilate synthase (glutamine); assay type: biochemical
Protocol: as §1, §2
as §3, with “5” for “100”, “glutamine; 0.2 to 0.8” for “NH4Cl; 0.5”, “C. The preparation of rice anthranilate synthase β subunit and quantification of the product by the Western blot method were performed according to the method of Kanno et al. (Kanno et al. (2004) Plant Molecular Biology 54, 11-22)” for “C.”

B1: N351D: mutant OASA2 protein, substitution of asparatate residue for asparagine residue at position 351 (protein, UniProt Q9XJ29 50-606, looked up, variant N351D)
Anthranilate synthase alpha …: CSAGKPEASAVINGSAAARAAEEDRRRFFEAAERGSGKGNLVPMWECIVSDHLTPVLAYRCLVPEDNMETPSFLFESVEQGPEGTTNVGRYSMVGAHPVMEVVAKEHKVTIMDHEKGKVTEQVVDDPMQIPRSMMEGWHPQQIDQLPDSFTGGWVGFFSYDTVRYVEKKKLPFSGAPQDDRNLPDVHLGLYDDVLVFDNVEKKVYVIHWVNLDRHATTEDAFQDGKSRLNLLLSKVHNSNVPKLSPGFVKLHTRQFGTPLNKSTMTSDEYKNAVMQAKEHIMAGDIFQIVLSQRFERRTYADPFEVYRALRIVNPSPYMAYVQARGCVLVASSPEILTRVRKGKIINRPLAGTVRRGKTEKEDEMQEQQLLSDEKQCAEHIMLVDLGRNDVGKVSKPGSVKVEKLMNIERYSHVMHISSTVSGELDDHLQSWDALRAALPVGTVSGAPKVKAMELIDELEVTRRGPYSGGLGGISFDGDMLIALALRTIVFSTAPSHNTMYSYKDTERRREWVAHLQAGAGIVADSSPDDEQRECENKAAALARAIDLAESAFVDKE
enzyme activity (anthranilate yield) compared with wild type [1]: improved enzyme activity over the wild type

B2: L530D: mutant OASA2 protein, substitution of asparatate residue for leucine residue at position 530 (protein, UniProt Q9XJ29 50-606, looked up, variant L530D)
Anthranilate synthase alpha …: CSAGKPEASAVINGSAAARAAEEDRRRFFEAAERGSGKGNLVPMWECIVSDHLTPVLAYRCLVPEDNMETPSFLFESVEQGPEGTTNVGRYSMVGAHPVMEVVAKEHKVTIMDHEKGKVTEQVVDDPMQIPRSMMEGWHPQQIDQLPDSFTGGWVGFFSYDTVRYVEKKKLPFSGAPQDDRNLPDVHLGLYDDVLVFDNVEKKVYVIHWVNLDRHATTEDAFQDGKSRLNLLLSKVHNSNVPKLSPGFVKLHTRQFGTPLNKSTMTSDEYKNAVMQAKEHIMAGDIFQIVLSQRFERRTYANPFEVYRALRIVNPSPYMAYVQARGCVLVASSPEILTRVRKGKIINRPLAGTVRRGKTEKEDEMQEQQLLSDEKQCAEHIMLVDLGRNDVGKVSKPGSVKVEKLMNIERYSHVMHISSTVSGELDDHLQSWDALRAALPVGTVSGAPKVKAMELIDELEVTRRGPYSGGLGGISFDGDMDIALALRTIVFSTAPSHNTMYSYKDTERRREWVAHLQAGAGIVADSSPDDEQRECENKAAALARAIDLAESAFVDKE
enzyme activity (anthranilate yield) compared with wild type [1]: improved enzyme activity over the wild type

B3: L530A: mutant OASA2 protein, substitution of alanine residue for leucine residue at position 530 (protein, UniProt Q9XJ29 50-606, looked up, variant L530A)
Anthranilate synthase alpha …: CSAGKPEASAVINGSAAARAAEEDRRRFFEAAERGSGKGNLVPMWECIVSDHLTPVLAYRCLVPEDNMETPSFLFESVEQGPEGTTNVGRYSMVGAHPVMEVVAKEHKVTIMDHEKGKVTEQVVDDPMQIPRSMMEGWHPQQIDQLPDSFTGGWVGFFSYDTVRYVEKKKLPFSGAPQDDRNLPDVHLGLYDDVLVFDNVEKKVYVIHWVNLDRHATTEDAFQDGKSRLNLLLSKVHNSNVPKLSPGFVKLHTRQFGTPLNKSTMTSDEYKNAVMQAKEHIMAGDIFQIVLSQRFERRTYANPFEVYRALRIVNPSPYMAYVQARGCVLVASSPEILTRVRKGKIINRPLAGTVRRGKTEKEDEMQEQQLLSDEKQCAEHIMLVDLGRNDVGKVSKPGSVKVEKLMNIERYSHVMHISSTVSGELDDHLQSWDALRAALPVGTVSGAPKVKAMELIDELEVTRRGPYSGGLGGISFDGDMAIALALRTIVFSTAPSHNTMYSYKDTERRREWVAHLQAGAGIVADSSPDDEQRECENKAAALARAIDLAESAFVDKE
enzyme activity (anthranilate yield) compared with wild type [1]: improved enzyme activity over the wild type

B4: Wt: wild type rice anthranilate synthase encoded by rice anthranilate synthase gene OASA2 (SEQ ID NO: 1) (protein, listed as Oryza sativa)
chain: MESIAAATFTPSRLAARPATPAAAAAPVRARAAVAAGGRRRTSRRGGVRCSAGKPEASAVINGSAAARAAEEDRRRFFEAAERGSGKGNLVPMWECIVSDHLTPVLAYRCLVPEDNMETPSFLFESVEQGPEGTTNVGRYSMVGAHPVMEVVAKEHKVTIMDHEKGKVTEQVVDDPMQIPRSMMEGWHPQQIDQLPDSFTGGWVGFFSYDTVRYVEKKKLPFSGAPQDDRNLPDVHLGLYDDVLVFDNVEKKVYVIHWVNLDRHATTEDAFQDGKSRLNLLLSKVHNSNVPKLSPGFVKLHTRQFGTPLNKSTMTSDEYKNAVMQAKEHIMAGDIFQIVLSQRFERRTYANPFEVYRALRIVNPSPYMAYVQARGCVLVASSPEILTRVRKGKIINRPLAGTVRRGKTEKEDEMQEQQLLSDEKQCAEHIMLVDLGRNDVGKVSKPGSVKVEKLMNIERYSHVMHISSTVSGELDDHLQSWDALRAALPVGTVSGAPKVKAMELIDELEVTRRGPYSGGLGGISFDGDMLIALALRTIVFSTAPSHNTMYSYKDTERRREWVAHLQAGAGIVADSSPDDEQRECENKAAALARAIDLAESAFVDKE
Relative Amount ([2]; free tryptophan relative to yeast expressing Wt OASA2 gene): 1.0 fold
Free Tryptophan Content ([2]; yeast transformant, galactose medium without tryptophan, 30° C., 2 days): 126 ± 7 pmol/mg wet weight
Relative Ratio (enzyme activity compared with the wild type) ([3]; Vmax relative to Wt): 1.00 fold
enzyme activity with tryptophan relative to 100% enzyme activity without tryptophan ([3]; tryptophan 50 μM, FIG. 3): below 10%
Vmax ([3]; with β subunit, 5 mM glutamine, 0.2 to 0.8 mM chorismate): 215 nmol/min/mg OASA2 Protein
